Experimental findings from PMC4103548, “Expression, and Molecular and Enzymatic Characterization of Cu-Containing Nitrite Reductase from a Marine Ammonia-Oxidizing Gammaproteobacterium, Nitrosococcus oceani” (Microbes and Environments, 2012) are described below.

Substrate in the series: O=NO
Description: nitrite consumption, diazo-coupling colorimetric assay; Hanes-Woolf plot. The series is classed as biochemical, Nitrosococcus oceani. Conditions: reduced methylviologen (dithionite) as electron donor, pH 5.5 (optimal), 30 mM CPT buffer, 37°C, under mineral oil, kcat per subunit.

B1: Cu-containing nitrite reductase (recombinant NirK) from Nitrosococcus oceani NS58 (Nitrosococcus oceani ATCC 19707) (protein)
chain: ADGEASSYIANIGTHANLKDLERVRQELVAPPHLPDHQQAYSGKPRIVEIEMVIEEKEVEIEPNVFVQAMTFNGTNPGPIIVVHEGDYVELTLKNLDTNMLLHNIDFHPATGALGGGALTKVAPGQQVTLRFKADKAGTYVYHCAPGGLMTPYHVVSGMYGAIMIFPKKGLRDQNGKKVTYDKAYYVGEQGWYIPKDKNGKYKRYANAIEPYGDTLEVMRGLVPTHVTYNGSKGALTGDNAMKAKVGDSVLFIHSQANEDSRIHLIGGHGDLVWPGGSFKNTPMVDKETWHVNGGESVAALYTFKQPGLYAYLNHNLIQAFMLGGAAHVKVDGEWNNDLMEQVVKPSPINAD
For the protein B1, the Km (commonly the concentration of substrate that gives half-maximal velocity) worked out at 52 µM and the turnover number (kcat) (commonly the maximal rate divided by the concentration of active sites) came to 1600 s⁻¹.
